Laboratory results as given in paper PMC3951439 (Science (New York, N.Y.), 2013).

Biological target: PRC2 (Homo sapiens, UniProt Q15910)
Experiment: PRC2 histone methyltransferase assay on nucleosomes
Format: biochemical
Conditions: peptide titration, µM concentrations; fluorography (Fig. 3E, fig. S3, D and E)

PRC2, sequence (Q15910 whole entry): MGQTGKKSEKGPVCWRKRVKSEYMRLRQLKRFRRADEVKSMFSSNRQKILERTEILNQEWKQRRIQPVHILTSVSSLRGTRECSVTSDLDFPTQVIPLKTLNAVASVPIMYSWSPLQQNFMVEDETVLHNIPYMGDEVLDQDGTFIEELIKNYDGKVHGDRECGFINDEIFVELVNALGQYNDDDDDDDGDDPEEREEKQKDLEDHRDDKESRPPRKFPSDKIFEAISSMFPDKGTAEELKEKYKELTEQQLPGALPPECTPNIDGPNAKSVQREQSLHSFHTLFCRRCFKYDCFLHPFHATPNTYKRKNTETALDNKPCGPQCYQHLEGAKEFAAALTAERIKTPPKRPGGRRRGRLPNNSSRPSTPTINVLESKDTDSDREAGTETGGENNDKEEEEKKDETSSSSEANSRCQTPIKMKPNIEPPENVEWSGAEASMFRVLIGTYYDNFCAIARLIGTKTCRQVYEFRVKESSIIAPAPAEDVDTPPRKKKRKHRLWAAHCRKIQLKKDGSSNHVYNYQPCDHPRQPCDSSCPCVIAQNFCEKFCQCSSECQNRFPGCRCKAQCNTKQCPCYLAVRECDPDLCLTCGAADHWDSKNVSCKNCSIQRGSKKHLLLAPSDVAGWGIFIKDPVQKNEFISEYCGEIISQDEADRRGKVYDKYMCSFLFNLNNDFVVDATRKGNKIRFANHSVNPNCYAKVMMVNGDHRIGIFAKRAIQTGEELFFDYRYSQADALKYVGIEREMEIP
PRC2, sequence (O75530 whole entry partner): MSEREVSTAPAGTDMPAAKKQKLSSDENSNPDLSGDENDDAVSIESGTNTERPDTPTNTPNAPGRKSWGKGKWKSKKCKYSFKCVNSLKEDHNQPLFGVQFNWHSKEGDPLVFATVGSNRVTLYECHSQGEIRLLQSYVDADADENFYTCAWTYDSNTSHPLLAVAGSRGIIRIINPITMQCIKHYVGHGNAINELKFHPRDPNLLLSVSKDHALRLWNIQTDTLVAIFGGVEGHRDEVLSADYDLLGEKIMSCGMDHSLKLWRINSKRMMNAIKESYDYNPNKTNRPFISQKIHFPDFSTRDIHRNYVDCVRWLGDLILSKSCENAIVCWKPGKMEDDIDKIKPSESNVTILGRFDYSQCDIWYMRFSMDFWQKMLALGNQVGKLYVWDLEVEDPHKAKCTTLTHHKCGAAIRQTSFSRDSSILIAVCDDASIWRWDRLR
PRC2, sequence (Q6ZN18 whole entry partner): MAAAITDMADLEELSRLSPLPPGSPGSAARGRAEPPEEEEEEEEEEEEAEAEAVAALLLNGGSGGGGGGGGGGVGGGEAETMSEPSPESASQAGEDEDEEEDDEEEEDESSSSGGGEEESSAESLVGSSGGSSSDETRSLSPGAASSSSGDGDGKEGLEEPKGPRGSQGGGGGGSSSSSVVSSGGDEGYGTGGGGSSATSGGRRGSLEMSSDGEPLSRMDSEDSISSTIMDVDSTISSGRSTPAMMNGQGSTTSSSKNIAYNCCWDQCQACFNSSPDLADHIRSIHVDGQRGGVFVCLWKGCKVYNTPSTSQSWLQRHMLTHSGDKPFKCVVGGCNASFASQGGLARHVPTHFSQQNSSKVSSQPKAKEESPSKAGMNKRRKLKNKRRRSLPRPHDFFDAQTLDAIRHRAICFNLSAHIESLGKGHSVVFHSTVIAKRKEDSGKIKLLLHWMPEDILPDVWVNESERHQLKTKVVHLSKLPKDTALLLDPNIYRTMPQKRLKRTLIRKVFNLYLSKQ
PRC2, sequence (Q15022 whole entry partner): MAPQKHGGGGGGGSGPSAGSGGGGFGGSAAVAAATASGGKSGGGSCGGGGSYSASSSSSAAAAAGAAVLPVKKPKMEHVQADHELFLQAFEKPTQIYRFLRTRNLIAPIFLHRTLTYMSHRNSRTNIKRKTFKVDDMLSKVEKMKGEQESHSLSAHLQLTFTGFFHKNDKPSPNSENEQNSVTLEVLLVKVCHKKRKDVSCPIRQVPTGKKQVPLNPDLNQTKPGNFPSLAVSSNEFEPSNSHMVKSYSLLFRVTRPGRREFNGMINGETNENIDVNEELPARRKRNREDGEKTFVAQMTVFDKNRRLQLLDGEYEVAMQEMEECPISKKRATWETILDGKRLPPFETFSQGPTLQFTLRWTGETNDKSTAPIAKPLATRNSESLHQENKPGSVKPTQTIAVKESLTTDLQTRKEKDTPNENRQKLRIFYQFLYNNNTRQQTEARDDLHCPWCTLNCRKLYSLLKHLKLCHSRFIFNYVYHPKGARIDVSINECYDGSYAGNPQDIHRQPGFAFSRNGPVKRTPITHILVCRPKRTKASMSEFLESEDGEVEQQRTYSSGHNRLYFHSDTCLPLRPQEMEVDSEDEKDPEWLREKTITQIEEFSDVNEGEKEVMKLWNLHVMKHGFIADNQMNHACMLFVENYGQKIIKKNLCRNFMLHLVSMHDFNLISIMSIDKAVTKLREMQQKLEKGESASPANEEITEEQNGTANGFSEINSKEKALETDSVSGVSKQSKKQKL
PRC2, sequence (Q09028 whole entry partner): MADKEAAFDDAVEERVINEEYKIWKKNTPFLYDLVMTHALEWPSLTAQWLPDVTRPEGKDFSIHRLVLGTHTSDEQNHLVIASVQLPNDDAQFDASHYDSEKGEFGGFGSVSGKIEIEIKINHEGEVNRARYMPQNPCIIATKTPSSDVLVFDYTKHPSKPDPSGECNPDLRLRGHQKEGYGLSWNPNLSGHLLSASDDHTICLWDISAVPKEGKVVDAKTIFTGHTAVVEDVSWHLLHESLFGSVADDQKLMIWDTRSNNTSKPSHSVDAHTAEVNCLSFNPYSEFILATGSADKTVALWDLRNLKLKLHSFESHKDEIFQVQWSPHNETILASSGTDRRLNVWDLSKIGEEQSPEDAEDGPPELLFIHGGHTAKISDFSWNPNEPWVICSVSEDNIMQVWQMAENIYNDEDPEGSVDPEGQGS

K27ac: H3 peptide (18 to 37) containing K27acetyl
dose-dependent inhibition of PRC2 methyltransferase activity: not the K27ac peptide, could inhibit PRC2-dependent methyltransferase activity in a dose-dependent manner
